Results published in article PMC3476531, “Synergy of Peptide and Sugar in O-GlcNAcase Substrate Recognition” (Chemistry & Biology, 2012).
*: point of attachment. βGlcNAc = CC(=O)N[C@@H]1[C@@H](O)[C@H](O)[C@@H](CO)O[C@H]1*

How the values were obtained:
[1] = molecular target: T1, human O-GlcNAcase (hOGA), wild-type (human) (UniProt O60502)
T1 sequence: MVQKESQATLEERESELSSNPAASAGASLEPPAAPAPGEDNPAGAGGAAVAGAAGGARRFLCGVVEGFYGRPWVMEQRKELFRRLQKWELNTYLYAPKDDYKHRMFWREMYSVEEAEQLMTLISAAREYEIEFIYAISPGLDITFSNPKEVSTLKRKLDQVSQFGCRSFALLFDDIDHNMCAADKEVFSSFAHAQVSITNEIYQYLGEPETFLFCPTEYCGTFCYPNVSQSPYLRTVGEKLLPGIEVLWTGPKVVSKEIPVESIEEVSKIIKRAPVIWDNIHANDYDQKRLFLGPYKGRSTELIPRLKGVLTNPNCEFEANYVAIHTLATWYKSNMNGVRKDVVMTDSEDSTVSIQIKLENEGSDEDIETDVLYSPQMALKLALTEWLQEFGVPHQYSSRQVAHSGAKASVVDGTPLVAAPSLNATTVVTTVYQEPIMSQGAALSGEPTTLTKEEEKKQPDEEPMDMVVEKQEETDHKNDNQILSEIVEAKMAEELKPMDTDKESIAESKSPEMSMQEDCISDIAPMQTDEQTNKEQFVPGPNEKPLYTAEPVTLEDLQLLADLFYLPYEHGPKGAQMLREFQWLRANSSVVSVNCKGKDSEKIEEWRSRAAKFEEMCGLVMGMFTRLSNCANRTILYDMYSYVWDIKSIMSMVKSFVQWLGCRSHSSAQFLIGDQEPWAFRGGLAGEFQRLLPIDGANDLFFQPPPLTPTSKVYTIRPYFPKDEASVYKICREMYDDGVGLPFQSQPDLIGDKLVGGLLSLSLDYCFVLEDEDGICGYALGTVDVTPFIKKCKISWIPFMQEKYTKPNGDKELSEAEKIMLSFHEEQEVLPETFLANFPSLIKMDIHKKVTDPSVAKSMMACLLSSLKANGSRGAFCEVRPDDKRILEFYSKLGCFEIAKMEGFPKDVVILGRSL

[2] = molecular target: T1, human O-GlcNAcase (hOGA), wild-type (human); remark: listed apart in the source
[3] = molecular target: T2, human O-GlcNAcase (hOGA) Y69F (human) (UniProt O60502)
T2 sequence: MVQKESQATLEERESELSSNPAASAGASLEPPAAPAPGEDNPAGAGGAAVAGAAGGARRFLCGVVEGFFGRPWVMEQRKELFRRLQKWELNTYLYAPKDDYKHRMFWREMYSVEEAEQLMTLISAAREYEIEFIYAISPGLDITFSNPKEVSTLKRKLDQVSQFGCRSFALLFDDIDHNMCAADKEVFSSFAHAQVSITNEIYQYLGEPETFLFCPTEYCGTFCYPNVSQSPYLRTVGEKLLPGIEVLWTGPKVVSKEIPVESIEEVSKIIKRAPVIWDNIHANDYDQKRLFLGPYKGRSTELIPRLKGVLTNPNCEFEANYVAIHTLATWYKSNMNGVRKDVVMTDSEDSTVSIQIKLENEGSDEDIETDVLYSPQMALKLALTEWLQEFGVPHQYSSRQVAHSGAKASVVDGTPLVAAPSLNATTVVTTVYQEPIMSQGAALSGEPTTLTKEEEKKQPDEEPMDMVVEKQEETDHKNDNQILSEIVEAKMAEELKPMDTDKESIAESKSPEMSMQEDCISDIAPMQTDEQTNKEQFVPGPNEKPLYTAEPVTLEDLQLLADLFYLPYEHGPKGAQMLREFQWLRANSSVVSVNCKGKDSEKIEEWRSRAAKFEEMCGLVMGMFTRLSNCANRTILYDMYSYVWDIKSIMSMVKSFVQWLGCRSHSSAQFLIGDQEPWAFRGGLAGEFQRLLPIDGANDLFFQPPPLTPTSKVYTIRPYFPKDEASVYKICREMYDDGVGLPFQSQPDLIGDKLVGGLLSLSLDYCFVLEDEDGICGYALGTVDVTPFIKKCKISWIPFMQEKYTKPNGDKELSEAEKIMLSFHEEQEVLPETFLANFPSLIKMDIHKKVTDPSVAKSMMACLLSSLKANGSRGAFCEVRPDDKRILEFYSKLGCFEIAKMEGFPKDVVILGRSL

[4] = molecular target: T3, human O-GlcNAcase (hOGA) Y69K (human) (UniProt O60502)
T3 sequence: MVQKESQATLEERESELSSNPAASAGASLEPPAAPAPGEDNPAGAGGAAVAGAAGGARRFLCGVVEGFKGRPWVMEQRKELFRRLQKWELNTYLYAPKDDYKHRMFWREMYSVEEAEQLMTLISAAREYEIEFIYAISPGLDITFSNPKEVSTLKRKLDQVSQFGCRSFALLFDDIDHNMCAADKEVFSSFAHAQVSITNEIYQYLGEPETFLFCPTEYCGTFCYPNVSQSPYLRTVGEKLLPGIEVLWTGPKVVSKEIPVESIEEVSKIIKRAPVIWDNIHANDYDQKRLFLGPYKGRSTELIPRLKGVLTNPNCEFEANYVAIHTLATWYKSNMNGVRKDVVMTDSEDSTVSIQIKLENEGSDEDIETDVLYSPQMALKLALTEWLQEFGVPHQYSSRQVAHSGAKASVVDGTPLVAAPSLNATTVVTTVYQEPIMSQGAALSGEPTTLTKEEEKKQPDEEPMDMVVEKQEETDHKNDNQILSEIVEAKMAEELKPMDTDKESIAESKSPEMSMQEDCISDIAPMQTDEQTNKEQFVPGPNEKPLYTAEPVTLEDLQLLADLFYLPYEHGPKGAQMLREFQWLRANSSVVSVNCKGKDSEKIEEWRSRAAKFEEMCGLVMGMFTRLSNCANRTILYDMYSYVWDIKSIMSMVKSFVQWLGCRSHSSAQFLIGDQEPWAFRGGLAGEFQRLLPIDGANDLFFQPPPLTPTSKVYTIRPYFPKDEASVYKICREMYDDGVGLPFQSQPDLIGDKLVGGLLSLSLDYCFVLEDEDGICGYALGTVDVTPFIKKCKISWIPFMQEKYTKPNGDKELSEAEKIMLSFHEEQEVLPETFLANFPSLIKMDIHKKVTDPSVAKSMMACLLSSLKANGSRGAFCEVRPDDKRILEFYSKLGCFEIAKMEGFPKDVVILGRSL

[5] = molecular target: T4, human O-GlcNAcase (hOGA) Y69Q (human) (UniProt O60502)
T4 sequence: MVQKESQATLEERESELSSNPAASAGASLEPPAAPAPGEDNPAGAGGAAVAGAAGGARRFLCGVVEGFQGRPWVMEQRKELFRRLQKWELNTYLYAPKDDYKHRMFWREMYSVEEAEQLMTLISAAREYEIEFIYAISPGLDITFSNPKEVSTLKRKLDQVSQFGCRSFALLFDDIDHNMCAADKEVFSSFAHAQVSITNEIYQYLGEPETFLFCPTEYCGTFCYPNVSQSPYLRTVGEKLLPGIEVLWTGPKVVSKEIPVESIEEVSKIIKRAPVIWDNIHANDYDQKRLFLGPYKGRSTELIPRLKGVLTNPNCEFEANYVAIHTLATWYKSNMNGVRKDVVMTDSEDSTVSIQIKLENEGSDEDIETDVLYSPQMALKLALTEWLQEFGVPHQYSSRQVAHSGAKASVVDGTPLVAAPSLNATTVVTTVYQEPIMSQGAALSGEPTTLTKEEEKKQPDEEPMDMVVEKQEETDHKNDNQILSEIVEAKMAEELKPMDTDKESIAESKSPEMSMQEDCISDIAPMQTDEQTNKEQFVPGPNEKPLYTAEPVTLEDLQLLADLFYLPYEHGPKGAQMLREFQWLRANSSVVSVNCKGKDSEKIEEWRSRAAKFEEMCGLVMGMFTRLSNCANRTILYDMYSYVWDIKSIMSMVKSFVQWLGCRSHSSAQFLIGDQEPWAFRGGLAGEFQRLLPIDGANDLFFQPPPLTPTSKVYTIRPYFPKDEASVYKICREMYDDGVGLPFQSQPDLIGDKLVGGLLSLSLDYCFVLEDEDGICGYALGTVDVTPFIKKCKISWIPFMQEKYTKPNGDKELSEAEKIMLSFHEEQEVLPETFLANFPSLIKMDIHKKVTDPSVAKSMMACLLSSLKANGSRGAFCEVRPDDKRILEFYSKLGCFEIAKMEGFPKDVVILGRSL

[6] = molecular target: T5, human O-GlcNAcase (hOGA) Y69S (human) (UniProt O60502)
T5 sequence: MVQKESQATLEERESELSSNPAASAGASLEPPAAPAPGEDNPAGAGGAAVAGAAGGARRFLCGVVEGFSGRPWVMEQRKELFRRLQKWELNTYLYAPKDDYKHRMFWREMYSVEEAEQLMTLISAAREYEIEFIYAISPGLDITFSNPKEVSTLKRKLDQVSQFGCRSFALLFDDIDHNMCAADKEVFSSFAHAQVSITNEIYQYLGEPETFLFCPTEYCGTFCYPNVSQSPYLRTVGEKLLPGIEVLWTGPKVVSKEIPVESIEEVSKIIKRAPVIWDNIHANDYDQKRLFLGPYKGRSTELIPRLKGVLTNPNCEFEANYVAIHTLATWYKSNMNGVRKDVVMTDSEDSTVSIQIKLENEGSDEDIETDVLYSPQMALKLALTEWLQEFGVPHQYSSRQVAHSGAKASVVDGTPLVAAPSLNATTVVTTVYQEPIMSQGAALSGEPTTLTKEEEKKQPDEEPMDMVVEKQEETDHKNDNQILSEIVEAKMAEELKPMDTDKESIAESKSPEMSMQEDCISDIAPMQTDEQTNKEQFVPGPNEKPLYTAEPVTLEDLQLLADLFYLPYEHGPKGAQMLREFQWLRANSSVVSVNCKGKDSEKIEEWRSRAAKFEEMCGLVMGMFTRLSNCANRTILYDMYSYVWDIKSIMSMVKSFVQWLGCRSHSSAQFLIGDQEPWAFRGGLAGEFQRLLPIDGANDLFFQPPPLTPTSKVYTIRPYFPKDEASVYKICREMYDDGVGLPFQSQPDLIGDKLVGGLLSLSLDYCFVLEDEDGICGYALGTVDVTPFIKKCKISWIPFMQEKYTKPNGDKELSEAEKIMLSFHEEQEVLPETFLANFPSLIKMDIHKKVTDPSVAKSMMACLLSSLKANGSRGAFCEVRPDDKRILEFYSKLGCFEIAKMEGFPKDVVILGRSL

## VPHSSAQ [TAB1 peptide (Ser395) VPHS(O-GlcNAc)SAQ, altered sequence]
[1]
  KM (hOGA) of the glycopeptide substrate (substrate competition assay with 4MU-GlcNAc as reporter substrate): 810 µM

B1: TAB1 peptide (Ser395) VPYS(O-GlcNAc)SAQ, original sequence (peptide)
peptide: Ac-VPYS(βGlcNAc)SAQ-NH2
SMILES: CC(=O)N[C@H]1[C@H](OC[C@H](NC(=O)[C@H](Cc2ccc(O)cc2)NC(=O)[C@@H]2CCCN2C(=O)[C@@H](NC(C)=O)C(C)C)C(=O)N[C@@H](CO)C(=O)N[C@@H](C)C(=O)N[C@@H](CCC(N)=O)C(N)=O)O[C@H](CO)[C@@H](O)[C@@H]1O
[1]
  KM (hOGA) of the glycopeptide substrate (substrate competition assay with 4MU-GlcNAc as reporter substrate): 4100 µM

B2: p53 peptide QLWVDS(O-GlcNAc)TPPPG (peptide)
peptide: Ac-QLWVDS(βGlcNAc)TPPPG-NH2
SMILES: CC(=O)N[C@H]1[C@H](OC[C@H](NC(=O)[C@H](CC(=O)O)NC(=O)[C@@H](NC(=O)[C@H](Cc2c[nH]c3ccccc23)NC(=O)[C@H](CC(C)C)NC(=O)[C@H](CCC(N)=O)NC(C)=O)C(C)C)C(=O)N[C@H](C(=O)N2CCC[C@H]2C(=O)N2CCC[C@H]2C(=O)N2CCC[C@H]2C(=O)NCC(N)=O)[C@@H](C)O)O[C@H](CO)[C@@H](O)[C@@H]1O
[2]
  KM of the glycopeptide substrate (substrate competition assay with 4MU-GlcNAc as reporter substrate): 21 µM

## VAHSGAK [hOGA peptide VAHS(O-GlcNAc)GAK]
[3]
  KM of the glycopeptide substrate (substrate competition assay with 4MU-GlcNAc as reporter substrate): 1200 µM
[4]
  KM of the glycopeptide substrate (substrate competition assay with 4MU-GlcNAc as reporter substrate): > 4 mM
[5]
  KM of the glycopeptide substrate (substrate competition assay with 4MU-GlcNAc as reporter substrate): > 4 mM
[6]
  KM of the glycopeptide substrate (substrate competition assay with 4MU-GlcNAc as reporter substrate): > 4 mM
